Drawing on paper PMC10689493 (Nature Communications, 2023), this text covers Kd for two molecules.

The test addresses T1, biotinylated SARS-CoV-2 Spike protein (WA-2, 2 P) (SARS-CoV-2 WA-2 (entry: reference …, UniProt P0DTC2, stabilised, biotinylated)).
T1 construct: source: bought: R&D systems
The test is described as follows: SPR. The note with it: both partners purified.

B1: DH1057.1 FAB fragment (Fab, V domains shown)
VH: EVQLVESGTEVKKPGASVKVSCKTSGYIFTNYYIHWVRQAPGQGLEWMGIFNPNGGGTSYAQKFQGRITLTGNTSANTGYMVLRSLTSEDTAVYYCARDPRTSGDNDGFDMWGQGTKVTVSS
VL: VLTQSPATLSLSPGERATLSCRASQSLSSYNYLAWYQQKPGQAPRLLIYAASKRATGIPARFSGSGSGTDFTLTISSLEPEDFAVYFCQQRSNRPPAWTFGQGTKVEIK
In general, Kd refers to the equilibrium constant for the complex coming apart. Higher therefore signals weaker binding. For the molecule B1, the affinity, expressed as Kd, was 11.5 nM. This counts as double-digit nanomolar.

B2: S2P6 FAB fragment (Fab, V domains shown)
VH: EVQLVQSGAEVKKPGASVKVSCKASGYTFTSQYMHWVRQAPGQGLEWIGIINPSGVHTSYAQKFQGRVTLTRDTSTSTLYMELSSLRSEDTAVYYCARGSPKGAFDYWGQGTLVTVSS
VL: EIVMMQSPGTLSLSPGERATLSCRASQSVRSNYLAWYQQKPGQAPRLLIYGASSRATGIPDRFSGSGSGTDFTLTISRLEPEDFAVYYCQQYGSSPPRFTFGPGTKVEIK
With B2, binding was put at a Kd of 0.4 nM.
